{
  "source": "patent US20110052582A1",
  "about": "(Hoffmann-La Roche, published 2011)",
  "binders": {"B1": {"name": "Humanized CUB4 Antibody No. 69 (antibody, IgG1, V domains shown)", "VH": "EVQLVESGGGLVQPGGSLRLSCAASGFTFNSYGMSWVRQAPGKGLEWVATISSGGSYKYYVDSVKGRFTISRDNAKNSLYLQMNSLRAEDTAVYYCARHPDYDGVWFAYWGQGTLVTVSS", "VL": "EIVLTQSPATLSLSPGERATMSCSVSSSVFYLHWYQQKPGQAPRLWIYDTSKLASGIPARFSGSGSGTDFTLTISSLEPEDFAVYYCQQWNSNPPTFGGGTKVEIK", "notes": "Human constant region; also called Antibody 69; hHC4-H / hLC-L2"}, "B2": {"name": "Humanized CUB4 Antibody No. 47 (antibody, human IgG1, V domains shown)", "VH": "B1 VH", "VL": "B1 VL with M21L, S24R, V25A", "notes": "Only variable domains are tied to the antibody; also called humanized anti-CDCP1 antibody 47; hHC4-H / hLC-K"}, "B3": {"name": "Humanized CUB4 Antibody No. 135 (antibody, IgG1, V domains shown)", "VH": "B1 VH", "VL": "DIQMTQSPSSLSASVGDRVTITCSVSSSVFYVHWYQQKPGKAPKLLIYDTSKLASGVPSRFSGSGSGTDFTFTISSLQPEDIATYYCQQWNSNPPTFGGGTKVEIK", "notes": "Human constant region, preferably IgG1; also called Antibody 135; hHC4-H / hLC-e"}, "B4": {"name": "Humanized CUB4 Antibody No. 80 (antibody, IgG1, V domains shown)", "VH": "B1 VH", "VL": "B1 VL with S24G, V25A, Q41L, A59D, S76R", "notes": "Only variable domains are tied to the antibody; Human constant region, preferably IgG1; also called hHC4-H / hLC-M"}, "B5": {"name": "chimeric (chHC4) CUB4 antibody comprising human constant region and mouse VH and VL (antibody, human IgG1, V domains shown)", "VH": "EVQLVESGGDLVKPGGSLKLSCAASGFTFNSYGMSWVRQTPDKRLEWVATISSGGSYTYYPDSVKGRFTISRDNAKNTLYLQMSSLKSEDTAMYYCARHPDYDGVWFAYWGQGTLVTVSA", "VL": "QIVLTQSPAIMSASPGEKVTMTCSVSSSVFYVHWYQQKSGTSPKRWIYDTSKLASGVPARFSGSGSGTSYSLTISSMEAEDAATYYCQQWNSNPPTFGGGTKLEIK"}, "B6": {"name": "Humanized CUB4 Antibody No. 91 (antibody, IgG1, V domains shown)", "VH": "B1 VH", "VL": "B1 VL with M21L, L32V, W46L", "notes": "Only variable domains are tied to the antibody; Human constant region, preferably IgG1; also called hHC4-H / hLC-a"}, "B7": {"name": "Humanized CUB4 Antibody No. 102 (antibody, IgG1, V domains shown)", "VH": "B1 VH", "VL": "B1 VL with M21L, L32V, W46L, F70Y", "notes": "Only variable domains are tied to the antibody; Human constant region, preferably IgG1; also called hHC4-H / hLC-b"}},
  "note": "Numbering of substitutions follows the chain as printed.",
  "data": [
    {"biological_target": "T1, Human CDCP1 (CUB domain containing protein 1) on DU-145 cells (human, UniProt Q9H5V8 30-836)", "T1 sequence": "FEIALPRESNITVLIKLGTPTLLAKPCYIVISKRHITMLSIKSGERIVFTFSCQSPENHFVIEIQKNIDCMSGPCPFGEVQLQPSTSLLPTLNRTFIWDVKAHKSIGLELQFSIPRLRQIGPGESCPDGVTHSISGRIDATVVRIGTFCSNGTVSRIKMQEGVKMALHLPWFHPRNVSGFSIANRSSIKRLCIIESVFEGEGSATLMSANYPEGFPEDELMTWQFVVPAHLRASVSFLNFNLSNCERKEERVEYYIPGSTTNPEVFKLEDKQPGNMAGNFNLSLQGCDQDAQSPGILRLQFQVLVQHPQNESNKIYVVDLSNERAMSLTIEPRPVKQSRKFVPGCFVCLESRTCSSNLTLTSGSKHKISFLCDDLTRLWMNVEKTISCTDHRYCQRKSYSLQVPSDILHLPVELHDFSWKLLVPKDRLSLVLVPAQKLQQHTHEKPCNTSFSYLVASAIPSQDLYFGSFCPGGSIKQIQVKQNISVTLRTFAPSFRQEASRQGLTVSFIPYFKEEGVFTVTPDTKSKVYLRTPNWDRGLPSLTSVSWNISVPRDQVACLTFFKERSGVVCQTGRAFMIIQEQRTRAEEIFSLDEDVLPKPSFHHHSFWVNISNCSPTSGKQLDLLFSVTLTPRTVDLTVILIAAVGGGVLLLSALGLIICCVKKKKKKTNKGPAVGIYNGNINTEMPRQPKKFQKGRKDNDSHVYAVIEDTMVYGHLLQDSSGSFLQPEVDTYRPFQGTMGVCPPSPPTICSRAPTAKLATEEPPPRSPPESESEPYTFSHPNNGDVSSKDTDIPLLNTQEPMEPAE", "assay": "cell-based or functional assay", "units": {"Percent (%) stimulation of CDCP1 phosphorylation in DU-145 cells (Western blot, densitometry)": "%"}, "values": [
      {"binder": "B1", "Percent (%) stimulation of CDCP1 phosphorylation in DU-145 cells (Western blot, densitometry)": 112},
      {"binder": "B2", "Percent (%) stimulation of CDCP1 phosphorylation in DU-145 cells (Western blot, densitometry)": 96},
      {"binder": "B3", "Percent (%) stimulation of CDCP1 phosphorylation in DU-145 cells (Western blot, densitometry)": 72},
      {"binder": "B4", "Percent (%) stimulation of CDCP1 phosphorylation in DU-145 cells (Western blot, densitometry)": 133},
      {"binder": "B5", "Percent (%) stimulation of CDCP1 phosphorylation in DU-145 cells (Western blot, densitometry)": 100}
    ]},
    {"biological_target": "T2, Soluble CDCP1 extracellular domain (CDCP1-ECD) (SEQ ID NO:30) fused to Streptavidin Binding Protein (SBP) (human, UniProt Q9H5V8 30-663)", "T2 construct": "also called SBP-CDCP1-ECD", "T2 sequence": "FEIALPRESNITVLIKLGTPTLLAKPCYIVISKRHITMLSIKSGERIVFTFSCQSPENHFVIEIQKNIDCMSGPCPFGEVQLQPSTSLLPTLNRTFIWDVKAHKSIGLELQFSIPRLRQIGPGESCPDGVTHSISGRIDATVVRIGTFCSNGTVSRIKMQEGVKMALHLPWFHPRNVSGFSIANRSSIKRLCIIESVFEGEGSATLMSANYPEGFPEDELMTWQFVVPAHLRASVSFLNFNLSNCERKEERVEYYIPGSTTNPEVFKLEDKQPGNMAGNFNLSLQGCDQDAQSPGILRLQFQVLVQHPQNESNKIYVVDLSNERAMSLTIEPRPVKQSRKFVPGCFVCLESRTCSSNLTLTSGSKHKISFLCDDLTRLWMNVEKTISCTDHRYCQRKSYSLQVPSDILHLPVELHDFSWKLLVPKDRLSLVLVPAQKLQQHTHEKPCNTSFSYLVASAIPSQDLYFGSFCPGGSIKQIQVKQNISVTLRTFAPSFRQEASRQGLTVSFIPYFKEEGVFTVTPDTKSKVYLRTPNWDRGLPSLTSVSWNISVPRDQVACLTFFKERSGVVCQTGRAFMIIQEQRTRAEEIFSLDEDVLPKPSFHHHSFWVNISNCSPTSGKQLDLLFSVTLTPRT", "assay": "ELISA on captured SBP-CDCP1-ECD, ratio relative to chimeric CUB4 (chHC4)", "summary_of_the_method": "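Streptavidin plates coated overnight at 2–8° C with SBP-CDCP1-ECD HEK293 supernatant (1:15–1:40). Antibodies, undiluted or 12-step dilution, bound 90 min at room temperature; HRP anti-human IgG 1 h, ABTS read at 405/492 nm, signal expressed relative to chimeric chHC4 reference.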", "values": [
      {"binder": "B1", "relative binding ratio": 0.69},
      {"binder": "B6", "relative binding ratio": 0.51},
      {"binder": "B7", "relative binding ratio": 0.53},
      {"binder": "B2", "relative binding ratio": 0.46},
      {"binder": "B3", "relative binding ratio": 0.47},
      {"binder": "B4", "relative binding ratio": 0.56}
    ]},
    {"biological_target": "T3, extracellular-domain-(ECD)-comprising fragment of human CDCP1 of SEQ ID NO: 30 (human, UniProt Q9H5V8 30-663)", "T3 construct": "also called CDCP1 ECD; CDCP1-ECD", "T3 sequence": "T2 sequence", "assay": "SPR (Biacore T100), antibody captured, CDCP1 ECD as analyte, 25 C, Langmuir 1:1", "method": "After conjugation, different anti-CDCP1 antibodies were injected at 25° C. at a flow rate of 5 μL/min, followed by a dilution series (0 nM to 1000 nM) of CDCP1 ECD at 30 μL/min. As running buffer for the binding experiment PBS/0.1% BSA was used. The chip was then regenerated with a 60s pulse of 10 mM glycine-HCl, pH 2.0 solution.\nCalculation of thermodynamic parameters (KD, binding constant) and kinetic parameters (kₒₙ rate, koff rate) were calculated using a Langmuir 1:1 binding model.", "units": {"Kd": "nM", "koff": "s⁻¹", "kon": "M⁻¹ s⁻¹", "t½ diss.": "min"}, "values": [
      {"binder": "B1", "Kd": 2.55, "koff": 0.00052, "kon": 210000, "t½ diss.": 22.1},
      {"binder": "B6", "Kd": 5.6, "koff": 0.001, "kon": 180000, "t½ diss.": 11.2},
      {"binder": "B7", "Kd": 5.4, "koff": 0.0011, "kon": 190000, "t½ diss.": 11},
      {"binder": "B2", "Kd": 3.77, "koff": 0.00075, "kon": 200000, "t½ diss.": 15.4},
      {"binder": "B3", "Kd": 8.3, "koff": 0.0011, "kon": 140000, "t½ diss.": 10.3},
      {"binder": "B4", "Kd": 3.53, "koff": 0.00088, "kon": 250000, "t½ diss.": 13.1}
    ]}
  ]
}
